PMC7790537

What was measured:
[1] = biological target: recombinant trimeric HA of A/Victoria/210/2009 (H3N2) (influenza A virus A/Victoria/210/2009 (H3N2))
[2] = biological target: recombinant trimeric HA of A/New Caledonia/20/1999 (H1N1) (influenza A virus A/New Caledonia/20/1999 (H1N1)) (UniProt Q6WG00)

Substance | HI activity, minimum HI concentration, Vic210 virus [1] [µg/mL] | NT activity, minimum virus-neutralizing concentration, Vic210 virus [1] [µg/mL] | HI activity, minimum HI concentration, NC20 virus [2] [µg/mL]
Fab-deficient (ΔFab) IgA1 monomer (domain or fragment) | 794 | > 500 | > 500
Fab-deficient (ΔFab) IgA2m2 monomer (domain or fragment) | 500 | > 500 | > 500
